Target: T1, LOXL2-Flag (human, UniProt Q9Y4K0 26-774)
T1 construct: Lysyl oxidase-like 2 (LOXL2), human, full-length form (774 aa by the printed limits of its C-terminal domain); also called Flag-tagged LOXL2; source: HEK293T, transfected, immunopurified
T1 sequence (looked up): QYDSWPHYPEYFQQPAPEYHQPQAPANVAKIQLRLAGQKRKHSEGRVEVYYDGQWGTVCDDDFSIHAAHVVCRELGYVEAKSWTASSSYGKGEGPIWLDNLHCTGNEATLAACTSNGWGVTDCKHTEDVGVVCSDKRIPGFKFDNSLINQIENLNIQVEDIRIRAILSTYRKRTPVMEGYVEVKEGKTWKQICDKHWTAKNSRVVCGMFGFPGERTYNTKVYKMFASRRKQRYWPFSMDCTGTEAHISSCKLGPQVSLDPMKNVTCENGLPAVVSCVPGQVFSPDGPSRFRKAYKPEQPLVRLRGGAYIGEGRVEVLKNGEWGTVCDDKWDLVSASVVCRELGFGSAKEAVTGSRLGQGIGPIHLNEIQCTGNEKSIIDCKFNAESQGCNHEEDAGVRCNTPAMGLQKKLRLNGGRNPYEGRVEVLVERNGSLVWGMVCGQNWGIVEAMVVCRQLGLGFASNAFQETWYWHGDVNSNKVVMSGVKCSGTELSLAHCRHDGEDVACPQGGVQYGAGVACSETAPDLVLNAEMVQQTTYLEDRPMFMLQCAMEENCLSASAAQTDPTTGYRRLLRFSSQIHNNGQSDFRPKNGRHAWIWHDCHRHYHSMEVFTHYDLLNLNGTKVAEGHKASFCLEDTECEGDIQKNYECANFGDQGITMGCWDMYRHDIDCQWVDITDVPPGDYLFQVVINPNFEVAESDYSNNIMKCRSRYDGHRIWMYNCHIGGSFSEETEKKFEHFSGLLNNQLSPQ
Experiment: pull-down; Purified GST-aldolase A or GST from bacteria on glutathione resins, incubated with immunopurified LOXL2-Flag or L2Δ13-Flag from HEK293T at 4 °C for 2 h; immunoblot with anti-Flag
Settings: both partners purified

B1: GST-aldolase A (enzyme, human)
chain: PYQYPALTPEQKKELSDIAHRIVAPGKGILAADESTGSIAKRLQSIGTENTEENRRFYRQLLLTADDRVNPCIGGVILFHETLYQKADDGRPFPQVIKSKGGVVGIKVDKGVVPLAGTNGETTTQGLDGLSERCAQYKKDGADFAKWRCVLKIGEHTPSALAIMENANVLARYASICQQNGIVPIVEPEILPDGDHDLKRCQYVTEKVLAAVYKALSDHHIYLEGTLLKPNMVTPGHACTQKFSHEEIAMATVTALRRTVPPAVTGITFLSGGQSEEEASINLNAINKCPLLKPWALTFSYGRALQASALKAWGGKKENLKAAQEEYVKRALANSLACQGKYTPSGQAGAAASESLFVSNHAY
notes: Aldolase A (fructose-bisphosphate aldolase A), human; also called GST-tagged aldolase A; GST-Aldolase A fusion protein; source: bacteria, purified recombinant, retained on glutathione resins
Question: Does B1 bind?
Answer: binds
